In the FLAb antibody collection (doi:10.1101/2023.12.08.570889):
Substitutions are numbered along the chain they refer to. Blank lines part the entries; values can stand above or below the binder they belong to.

Target: ACVR2B, Q13705
Test: Kd (SPR)

Sequence of ACVR2B, Q13705 (Q13705 whole entry, looked up): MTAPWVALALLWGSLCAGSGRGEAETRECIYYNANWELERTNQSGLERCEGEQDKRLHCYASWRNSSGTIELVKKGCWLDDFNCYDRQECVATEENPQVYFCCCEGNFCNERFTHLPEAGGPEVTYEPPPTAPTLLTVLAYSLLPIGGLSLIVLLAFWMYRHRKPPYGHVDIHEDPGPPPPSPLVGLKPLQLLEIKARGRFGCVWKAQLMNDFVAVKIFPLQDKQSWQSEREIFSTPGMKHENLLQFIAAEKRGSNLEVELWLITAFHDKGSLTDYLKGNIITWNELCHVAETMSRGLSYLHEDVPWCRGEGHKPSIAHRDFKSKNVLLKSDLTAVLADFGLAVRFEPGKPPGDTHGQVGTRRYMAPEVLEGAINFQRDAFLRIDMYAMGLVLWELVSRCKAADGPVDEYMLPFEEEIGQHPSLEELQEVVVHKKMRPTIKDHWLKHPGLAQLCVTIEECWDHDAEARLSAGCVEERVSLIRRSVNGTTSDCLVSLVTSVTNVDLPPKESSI

B1: unnamed (protein)
chain 1: QVQLVQSGAEVKKPGASVKVSCKASGYTFTSSYINWVRQAPGQGLEWMGTINPVSGSTSYAQKFQGRVTMTRDTSISTAYMELSRLRSDDTAVYYCARSWGYFDVWGQGTLVTVSS
chain 2: QSALTQPASVSGSPGQSITISCTGTSSDVGSYNYVNWYQQHPGKAPKLMIYGVSKRPSGVSNRFSGSKSGNTASLTISGLQAEDEADYYCGTFAGGSYYGVFGGGTKLTVL
Kd: 106 nM

B2: unnamed (protein)
chain 1: QVQLVQSGAEVKKPGASVKVSCKASGYTFTSSYINWVRQAPGQGLEWMGTINPVSGSTSYAQKFQGRVTMTRDTSISTAYMELSRLRSDDTAVYYCARGGDFDYWGQGTLVTVSS
chain 2: B1 chain 2
Kd: 123 nM

B4: unnamed (protein)
chain 1: B2 chain 1 with G99Q, G100L, D101T, F102L, Y104V
chain 2: B1 chain 2
Kd: 210 nM

B5: unnamed (protein)
chain 1: B2 chain 1 with D101Y, F102N
chain 2: B1 chain 2
Kd: 101 nM

B6: unnamed (protein)
chain 1: B2 chain 1 with F102M
chain 2: B1 chain 2
Kd: 162 nM

B7: unnamed (protein)
chain 1: B2 chain 1 with D101Y, F102T
chain 2: B1 chain 2
Kd: 101 nM

B10: unnamed (protein)
chain 1: B1 chain 1 with S99L, W100A, G101I, Y102G, F103D, D104S, V105Y
chain 2: B1 chain 2
Kd: 111 nM

Now those with a lower Kd, led by results:

Kd: 41.9 nM
B3: unnamed (protein)
chain 1: B2 chain 1 with G99S, D101Y, F102A
chain 2: B1 chain 2

Kd: 76.7 nM
B8: unnamed (protein)
chain 1: B2 chain 1 with D101Y, F102A
chain 2: B1 chain 2

Kd: 42.6 nM
B9: unnamed (protein)
chain 1: B2 chain 1 with D101Y, F102D
chain 2: B1 chain 2
